Results on four molecules are retold here after US20220048996A1 (F STAR BETA, published 2022).

Experiment [1] addresses T1, human OX40 expressed on DO11.10 cells (DO11.10-hOX40) (human, UniProt P43489 29-277).
T1 construct: Also used here for OX40 on primary human T cells in the functional rows; also called human OX40 receptor; OX40 on human T cells
T1 sequence: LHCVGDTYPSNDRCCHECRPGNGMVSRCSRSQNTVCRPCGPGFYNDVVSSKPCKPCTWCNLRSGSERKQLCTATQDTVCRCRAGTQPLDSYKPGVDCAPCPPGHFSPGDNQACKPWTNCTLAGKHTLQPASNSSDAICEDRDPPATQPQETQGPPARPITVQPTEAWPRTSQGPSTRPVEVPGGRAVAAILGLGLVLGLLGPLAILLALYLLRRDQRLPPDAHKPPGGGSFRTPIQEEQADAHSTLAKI
Kind of experiment: flow cytometry on DO11.10 cells expressing the target, three experiments. As for the experimental part: (§1) 50 μl of the antibody dilutions were added to the wells containing cells (final volume 100 μl) and incubated at 4° C. for 1 hour. […] The plates were washed and resuspended in 100 μl of PBS containing DAPI (Biotium, cat no 40043) at 1 μg/ml. The plates were analysed using a Canto II flow cytometer (BD Bioscience) and the data analysed using FlowJo. Dead cells were identified by their higher fluorescence on the UV (405 nm/450/50) channel and excluded from analysis. […] The GMFI data was fit using log (agonist) vs response (three parameters) in Graph Pad Prism Software to generate EC₅₀ values.
(§2) However, in this experiment, instead of using HEK cells to analyse the non-specific binding, non-transduced DO11.10 cells were used. […] The experiment was repeated three times to increase the reliability of the EC₅₀ values calculated.

The target of experiment [2] is T2, cynomolgus OX40 expressed on DO11.10 cells (DO11.10-cOX40) (cynomolgus, UniProt P43489 29-277 (human entry)).
T2 chain: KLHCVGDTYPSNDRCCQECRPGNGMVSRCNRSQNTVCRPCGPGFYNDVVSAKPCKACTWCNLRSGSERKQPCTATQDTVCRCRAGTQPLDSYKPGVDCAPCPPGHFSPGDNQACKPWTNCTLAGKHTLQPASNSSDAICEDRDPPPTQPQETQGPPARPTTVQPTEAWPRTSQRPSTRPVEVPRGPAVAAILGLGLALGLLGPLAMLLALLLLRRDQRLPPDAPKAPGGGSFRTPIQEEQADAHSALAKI
Described as above. As for the experimental part: as §1, §2

For experiment [3], the target named is T3, human CD137 expressed on DO11.10 cells (DO11.10-hCD137) (human, UniProt Q07011 24-255).
T3 construct: also called CD137 on human T cells
Kind of experiment: flow cytometry on DO11.10 cells expressing the target, mean ± SD of three experiments. The procedure:
as §1, §2

Experiment [4] deals with T4, cynomolgus CD137 expressed on DO11.10 cells (DO11.10-cCD137) (cynomolgus monkey, UniProt Q07011 24-255 (human entry)).
T4 chain: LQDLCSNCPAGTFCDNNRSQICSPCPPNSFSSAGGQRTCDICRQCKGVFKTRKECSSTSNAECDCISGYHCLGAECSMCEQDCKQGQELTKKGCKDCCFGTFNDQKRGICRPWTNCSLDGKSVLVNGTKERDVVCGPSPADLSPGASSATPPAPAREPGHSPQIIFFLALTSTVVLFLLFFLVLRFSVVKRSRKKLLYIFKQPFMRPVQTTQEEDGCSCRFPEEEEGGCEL
The description is as above. The procedure: as §1, §2

The target in experiment [5] is T1, human OX40 expressed on DO11.10 cells …. Kind of experiment: cell-based or functional assay.
Experiment [6] addresses T3, human CD137 expressed on DO11.10 cells …. Kind of experiment: cell-based or functional assay.
Target sequence in this assay (Q07011 24-255): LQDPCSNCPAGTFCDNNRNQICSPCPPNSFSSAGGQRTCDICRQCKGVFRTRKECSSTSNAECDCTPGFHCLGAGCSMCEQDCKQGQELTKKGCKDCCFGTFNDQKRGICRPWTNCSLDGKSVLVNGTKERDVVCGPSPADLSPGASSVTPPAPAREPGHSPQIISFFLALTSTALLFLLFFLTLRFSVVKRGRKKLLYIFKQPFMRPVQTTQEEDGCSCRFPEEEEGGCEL
For another experiment, the target named is T5, hCD137-mFc-Avi (human).
T5 construct: Dimer; a biotinylated version was used where the text says so; also called human CD137-mFc-Avi; hCD137-mFc-Avi-Bio
T5 sequence (chain, as listed by the source limits assumed): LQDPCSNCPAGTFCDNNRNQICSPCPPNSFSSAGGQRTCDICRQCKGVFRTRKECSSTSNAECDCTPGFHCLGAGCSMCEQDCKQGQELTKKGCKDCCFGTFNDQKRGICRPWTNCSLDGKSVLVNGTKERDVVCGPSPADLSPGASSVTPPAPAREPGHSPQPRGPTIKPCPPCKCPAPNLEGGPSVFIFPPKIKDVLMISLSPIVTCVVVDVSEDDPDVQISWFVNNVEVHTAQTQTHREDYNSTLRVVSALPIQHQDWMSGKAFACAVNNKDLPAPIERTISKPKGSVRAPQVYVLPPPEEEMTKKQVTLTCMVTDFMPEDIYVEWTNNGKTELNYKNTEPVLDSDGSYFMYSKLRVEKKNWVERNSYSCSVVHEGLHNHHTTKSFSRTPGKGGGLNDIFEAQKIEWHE
Kind of experiment: SPR, antigen immobilised on CM5, mAb^2 at 1 nM and 1 µM.

For experiment [7], the target named is T6, hOX40-mFc (human).
T6 construct: Dimeric; also called human OX40-mFc
T6 chain: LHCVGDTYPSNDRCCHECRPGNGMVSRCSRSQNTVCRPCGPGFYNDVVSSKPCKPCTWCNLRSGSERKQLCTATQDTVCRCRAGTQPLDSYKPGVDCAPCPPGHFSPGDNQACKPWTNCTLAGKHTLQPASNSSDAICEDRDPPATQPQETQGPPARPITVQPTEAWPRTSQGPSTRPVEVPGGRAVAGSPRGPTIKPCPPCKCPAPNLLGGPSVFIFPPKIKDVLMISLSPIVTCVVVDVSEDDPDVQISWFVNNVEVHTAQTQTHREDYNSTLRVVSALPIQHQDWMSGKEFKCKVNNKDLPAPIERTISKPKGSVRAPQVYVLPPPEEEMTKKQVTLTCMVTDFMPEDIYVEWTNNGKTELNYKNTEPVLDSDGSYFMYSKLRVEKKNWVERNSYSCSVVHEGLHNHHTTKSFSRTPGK
The experiment is described as above.

For experiment [8], the target named is T7, mouse OX40 expressed on DO11.10 cells (DO11.10-mOX40) (mouse, UniProt P47741 20-272).
T7 construct: Also used here for OX40 on primary mouse T cells in the functional rows; also called OX40 on mouse T cells
T7 sequence: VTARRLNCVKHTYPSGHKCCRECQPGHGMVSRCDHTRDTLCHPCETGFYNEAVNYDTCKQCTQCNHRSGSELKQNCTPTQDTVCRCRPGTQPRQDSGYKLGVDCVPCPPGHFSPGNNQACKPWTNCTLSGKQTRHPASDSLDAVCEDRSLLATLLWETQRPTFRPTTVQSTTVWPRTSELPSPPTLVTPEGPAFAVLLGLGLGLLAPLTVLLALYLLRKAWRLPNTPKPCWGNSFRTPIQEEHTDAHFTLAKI
Kind of experiment: flow cytometry, fluorescently-labelled antibody on DO11.10-mOX40.

Experiment [9] concerns the target T6, hOX40-mFc. Kind of experiment: SPR, antibody captured via anti-human Fab, antigen flowed.
The target of a further experiment is T8, cOX40-mFc (cynomolgus).
T8 construct: Dimeric; also called cyno OX40-mFc
T8 chain: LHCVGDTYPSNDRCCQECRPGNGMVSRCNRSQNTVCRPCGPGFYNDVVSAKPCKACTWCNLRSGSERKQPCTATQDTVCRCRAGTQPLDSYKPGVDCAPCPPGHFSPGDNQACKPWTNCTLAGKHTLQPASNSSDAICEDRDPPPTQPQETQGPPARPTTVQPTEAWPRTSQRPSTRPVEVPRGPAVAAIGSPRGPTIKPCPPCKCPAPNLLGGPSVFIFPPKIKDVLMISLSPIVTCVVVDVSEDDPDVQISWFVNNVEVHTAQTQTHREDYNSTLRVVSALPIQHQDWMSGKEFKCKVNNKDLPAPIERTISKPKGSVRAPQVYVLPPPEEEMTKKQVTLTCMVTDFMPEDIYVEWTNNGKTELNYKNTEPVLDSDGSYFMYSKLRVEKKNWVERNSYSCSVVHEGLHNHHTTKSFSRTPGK
The experiment is described as above.

The target of experiment [10] is T1, human OX40 expressed on DO11.10 cells …. Kind of experiment: flow cytometry on DO11.10 cells expressing the target. As for the experimental part:
as §1

Experiment [11] concerns the target T2, cynomolgus OX40 expressed on DO11.10 …. The description is as above. The procedure:
as §1

B1: G1/FS30-10-16 (antibody, IgG1, V domains shown)
VH: EVQLLESGGGLVQPGGSLRLSCAASGFTFSSYDMSWVRQAPGKGLEWVSDIDPTGSKTDYADSVKGRFTISRDNSKNTLYLQMNSLRAEDTAVYYCARDLLVYGFDYWGQGTLVTVSS
VL: EIVLTQSPGTLSLSPGERATLSCRASQSVSSSYLAWYQQKPGQAPRLLIYGASSRATGIPDRFSGSGSGTDFTLTISRLEPEDFAVYYCQQSYSYPVTFGQGTKVEIKR
notes: IgG1 format; also called CD137 Fab (in IgG1 format; FS30-010-016)
In the case of B1, the binding result in experiment [1] and in experiment [2] was “no binding” each time. Also, the EC50 was 0.1 nM in experiment [3] and 0.09 nM in experiment [4].

B2: FS20-22-49AA/FS30-35-14 (bispecific antibody, human IgG1, kappa, L234A L235A, V domains shown)
VH: EVQLLESGGGLVQPGGSLRLSCAASGFTFSAYNIHWVRQAPGKGLEWVSDISPYGGATNYADSVKGRFTISRDNSKNTLYLQMNSLRAEDTAVYYCARNLYELSAYSYGADYWGQGTLVTVSS
VL: EIVLTQSPGTLSLSPGERATLSCRASQSVSSSYLAWYQQKPGQAPRLLIYGASSRATGIPDRFSGSGSGTDFTLTISRLEPEDFAVYYCQQYYYSSPITFGQGTKVEIKR
notes: IgG1 with LALA; also called OX40/CD137 mAb^2
B2: in experiment [5], the “SEA assay (PBMC), hIL-2 max response, crosslinked” value was found to be 32200 pg/mL; the “SEA assay (PBMC), hIL-2 max response, no crosslinker” value stood at 32400 pg/mL; the “SEA assay (PBMC), hIL-2 release EC50, crosslinked” value was 0.14 nM; the “SEA assay (PBMC), hIL-2 release EC50, no crosslinker” value is 0.09 nM. For the same molecule, in experiment [6], the “EC50 of mIL-2 release, DO11.10-hCD137 assay, crosslinked” value came out at 5.1 nM and the “Emax of mIL-2 release, DO11.10-hCD137 assay, crosslinked” value came out at 19800 pg/mL. The binding result with hCD137-mFc-Avi is on record as “binds”. Also, the binding result with hOX40-mFc [7] was “binds”.

B3: antibody OX86 (Biolegend cat no 119408) (antibody, V domains shown)
VH: QVQLKESGPGLVQPSQTLSLTCTVSGFSLTGYNLHWVRQPPGKGLEWMGRMRYDGDTYYNSVLKSRLSISRDTSKNQVFLKMNSLQTDDTAIYYCTRDGRGDSFDYWGQGVMVTVSS
VL: DIVMTQGALPNPVPSGESASITCRSSQSLVYKDGQTYLNWFLQRPGQSPQLLTYWMSTRASGVSDRFSGSGSGTYFTLKISRVRAEDAGVYYCQQVREYPFTFGSGTKLEIK
As for B3, the “fluorescence over non-transduced cells (fold)” value in experiment [8] was no less than 10 fold.

B4: G1/MOR7480.1 (antibody, human IgG1, lambda)
heavy: not shown
light: SYELTQPPSVSVSPGQTASITCSGDNIGDQYAHWYQQKPGQSPVLVIYQDKNRPSGIPERFSGSNSGNTATLTISGTQAMDEADYYCATYTGFGSLAVFGGGTKLTVLGQPKAAPSVTLFPPSSEELQANKATLVCLISDFYPGAVTVAWKADSSPVKAGVETTTPSKQSNNKYAASSYLSLTPEQWKSHRSYSCQVTHEGSTVEKTVAPTECS
notes: also called G1/M0R7480.1
For B4, the binding result in the experiment with hOX40-mFc [9] is on record as “no binding (tested: 200 nM)”; with cOX40-mFc it was “no binding (tested: 200 nM)”; in [10], “no binding”; in experiment [11], “no binding”.
